Data on two molecules can be found in US20160303245A1, “FATTY ACID DERIVATIVES OF DIMERIC INHIBITORS OF PSD-95” (UNIVERSITY OF COPENHAGEN, priority 2013, published 2016).

Assay [1] has as its target Human Serum Albumin (human), P02768. Kind of assay: Transil XL HSA binding kit (immobilized HSA), unbound compound by RP-HPLC.
For assay [2] the target is unchanged. In words: calculated from KD(HSA) at 150 µM HSA (equation 2).

One may read the Kd as a measure of binding affinity in units of concentration. For the molecule IETDV (modifications not checked) [FA-linked dimeric ligand 14], the Kd in assay [1] was determined as 116 µM. Also, the fu (%), fraction unbound in assay [2] was 43.6%.
Taken in the same sequence, the figures for IETDV (modifications not checked) [FA-linked dimeric ligand 15] were 55 µM and 26.8%.
